In this experiment the test system is EMT6 cells. Description: EMT6 syngeneic breast tumor model, tumor growth and survival. It counts as in vivo, BALB/c mice. The conditions noted are these: NP137 20 mg/Kg loading then 10 mg/Kg i.v.; Venetoclax 5 mg/Kg oral gavage; vs isotypic control antibody. The protocol: FIG. 8. Combining netrin-1 interference and BH3 mimetics inhibits tumor growth in preclinical in vivo and ex vivo models. ((A,B,C): Combining netrin-1 interference and Bcl-2 inhibition restrains tumor growth in a syngeneic breast cancer model. EMT6 cells were engrafted in BALB/c mice and, once tumors reached a volume of 50 mm^3, treated with isotypic (Iso-mAb) or NP137 antibodies and the Bcl-2 inhibitor Venetoclax, as single agents or in combination. Tumor volumes were measured at the indicated days after the first treatment (n=9, ** p<0.01, ordinary two-way ANOVA with Tukey's multiple comparisons test) (A,B). Survival rate was assessed at sacrifice of mice with tumors more than 500 mm^3 (C). (D,E,F): Combined treatment is efficient to induce apoptosis in human ex vivo slices. Cleaved active caspase-3-positive cells were assessed by IHC staining in fresh ex vivo breast tumor tissue slices. […]
FIG. 9. […] 24 hours later, apoptosis was quantified by Annexin V/propidium iodide (PI) staining. EC50 values were calculated using nonlinear regression of Dose-response curves with GraphPad Prism software. […] Apoptosis was then evaluated by 5′,6,6′-tetrachloro-1,1′,3,3′-tetraethylbenzimi-dazolylcarbocyanine iodide (JC-1) dye staining, using NucleoCounter NC3000 (n=2, *p<0.05, ordinary two-way ANOVA with Tukey's multiple comparisons test). […]

B1: NP137: humanized anti-netrin-1 monoclonal antibody, VH SEQ ID NO: 22, VL SEQ ID NO: 16, human IgG1 (antibody, V domains shown)
VH: QVQLQQSGPGLVKPSQTLSLTCAISGYTFTSYNMHWVRQATGQGLEWMGAIYPGNGDTSYNQKFKGRLTISKDTSKNQVVLTMTNMDPVDTATYYCARGGTGFAYWGQG
VL: DIQMTQSPSSLSASVGDRVTITCKASQSVSNDVAWYQQKPGQAPRLLIYYASNRYTGIPPRFSGSGYGTDFTLTINNIESEDAAYYFCQQDYSSPWTFGQG
modifications: human IgG1 constant region; humanized variant; MISC_FEATURE - CDR according to IGMT
As to B1, the tumor growth entry is “no effect on tumor growth”.

For the origin of these results see patent publication US20250215071A1, “Novel Mcl-1 inhibitor and combination of Mcl-1 and a BH3 mimetic, such as a Bcl-2 inhibitor” (NETRIS PHARMA, priority 2022, published 2025).
